Experimental findings from FireProtDB (doi:10.1529/biophysj.106.099531) are described below.

For the series the following is noted: Pseudomonas aeruginosa (strain ATCC 15692 / DSM 22644 / CIP 104116 / JCM 14847 / LMG 12228 / 1C / PRS 101 / PAO1), pH 7.5, GdnHCl, Fluorescence, Tris 1 mM, NaCl 1.93 M, reversible: Yes, whole UniProt chain shown.

Values joined by “and” are separate entries in the source; they are usually repeats but may differ in a detail not shown here. Equal entries are not always repeated.

B1: Azurin wild type, P00282 (protein)
chain: MLRKLAAVSLLSLLSAPLLAAECSVDIQGNDQMQFNTNAITVDKSCKQFTVNLSHPGNLPKNVMGHNWVLSTAADMQGVVTDGMASGLDKDYLKPDDSRVIAHTKLIGSGEKDSVTFDVSKLKEGEQYMFFCTFPGHSALMKGTLTLK
Regarding B1, the denaturant m value is, setting by setting: (20 °C) 5.53 kcal/mol/M; (-8 °C) 3.63 kcal/mol/M and 6.66 kcal/mol/M; (-10 °C) 3.77 kcal/mol/M; (-12 °C) 3.85 kcal/mol/M and 6.98 kcal/mol/M. Moreover, the “denaturant midpoint (higher = more stable)” value (shortened to “denaturant midpoint”) (20 °C) turned out to be 1.74 M; the “denaturant midpoint” value (-8 °C) was 1.79 M and 1.58 M; the “denaturant midpoint” value (-10 °C) is 1.73 M; the “denaturant midpoint” value (-12 °C) was 1.7 M and 1.5 M. For the same protein, the unfolding free energy reads like this: (20 °C) 9.63 kcal/mol; (-8 °C) 6.89 kcal/mol and 10.5 kcal/mol; (-10 °C) 6.83 kcal/mol; (-12 °C) 6.77 kcal/mol and 10.5 kcal/mol.
